From US20050288492A1 (MEDICAL RESEARCH COUNCIL, published 2005)
Numbering of substitutions follows the chain as printed.

Experiments:
[1] = molecular target: T1, Recombinant activated HRAS (G12V; residues 1-166), GppNp-bound (human, UniProt P01112 1-166, loaded with 5'-guanylylimidodiphosphate (GppNp), a non-covalent nucleotide); assay: SPR (BIAcore 2000), Example 12
T1 construct: range 1-166; Antigen of the ELISA and BIAcore assays; also called HRASG12V-GppNp; RASG12V-GppNp

[2] = molecular target: T1, Recombinant activated HRAS (G12V; …); assay: SPR (BIAcore 2000), purified His-tagged fragment on RAS antigen
[3] = molecular target: T2, LexA DBD (made from the empty pBTM116 vector) (UniProt P0A7C2 1-202); assay: yeast two-hybrid, scFv-VP16 prey (data not shown)
T2 construct: domain: LexA DBD; Yeast bait control
T2 sequence (looked up): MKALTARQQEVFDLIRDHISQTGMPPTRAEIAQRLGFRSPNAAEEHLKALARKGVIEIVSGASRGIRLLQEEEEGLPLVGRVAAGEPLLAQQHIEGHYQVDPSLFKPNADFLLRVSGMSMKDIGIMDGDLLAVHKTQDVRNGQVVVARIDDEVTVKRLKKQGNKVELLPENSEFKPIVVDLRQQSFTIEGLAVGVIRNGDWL

[4] = molecular target: β-galactosidase (non-relevant antigen bait in yeast) (UniProt P00722 1-1024 = β-galactosidase, limits assumed); assay: yeast two-hybrid, scFv-VP16 prey (data not shown)
[5] = molecular target: T1, Recombinant activated HRAS (G12V; …); assay: SPR (BIAcore 2000), HRASG12V-GppNp immobilised (about 1500 RU), purified scFv as analyte, Example 4
[6] = molecular target: T1, Recombinant activated HRAS (G12V; …); assay: SPR, BIAcore 2000; HRASG12V-GppNp immobilised, purified scFv injected; BIAevaluation 2.1
BSA = molecular target: T3, BSA (bovine, UniProt P02769); assay: ELISA; BSA coated at 30 mg/ml, purified His-tagged scFv, detection with HRP anti-polyhistidine, absorption 450-650 nm
T3 construct: coated on the ELISA plate at 30 mg/ml as control antigen; also called bovine serum albumin

[7] = molecular target: T4, Gal4 DBD fused to HRASG12V (codons 1-166) (mammalian bait from pM1-HRASG12V) (UniProt P04386 1-147; P01112 1-166); assay: cell-based or functional assay
[8] = molecular target: T1, Recombinant activated HRAS (G12V; …); assay: SPR (BIAcore 2000), HRASG12V-GppNp immobilised (about 1500 RU), purified scFv as analyte, Example 4; Example 4, BIAcore, FIG. 6B
[9] = molecular target: HRASG12V expressed in NIH3T3 cells from pZIPneoSV(X)-HRASG12V (UniProt P01112 1-186, limits assumed); assay: cell-based or functional assay
[10] = molecular target: T4, Gal4 DBD fused to HRASG12V (codons …); assay: COS7 luciferase reporter with HRAS, KRAS or NRAS (data not shown)

B1: IDab anti-RAS #3 (other)
VH: QVQLVESGGGLVQPGGSLRLSCAASGFTFSSYAMHWVRQAPGKGLEWVSVISKLTHHTYYADSVKGRFTISRDNSKNTLYLQMNSLRAEDTAVYYCARGVQGYVHGLKGNWFDYWGQGTLVTVSS
notes: also called anti-RAS clone #3; clone 3
[1]
  Kd: ~180 nM
[2]
  koff: 0.00104 s⁻¹
  kon: 5660 M⁻¹ s⁻¹

B2: anti-RAS scFv I21 (scFv)
scFv: EVQLLESGGGLVQPGGSLRLSCAASGFTFSSYAMSWVRQAPGKGLEWVSTISYGGSNTNYADSVKARFTISRDNSKNTLYLQMNSLRAEDTAVYYCAKGNNAFDYWGQGTLVTVSSGGGGSGGGGSGGGGSTDIQMTQSPSSLSASVGDRVTITCRASQSISSYLNWYQQKPGKAPKLLIYNASALQSGVPSRFSGSGSGTDFTLTISSLQPEDFATYYCQQYTSTPRTFGQGTKVEIKR
notes: also called ICAb I21
[3]
  binding result: no binding
[4]
  binding result: no binding
[5]
  Kd: 2160 nM
[6]
  Kd: 1310 nM
  koff: 0.0212 s⁻¹
  kon: 16700 M⁻¹ s⁻¹
BSA
  binding result: no binding (tested: 450 ng per well (legend))

B3: anti-RAS scFv33 (scFv)
scFv: QVQLVEAGGGLVQPGGSLRLSCAASGFSFSTFSMNWVRQAPGKGLEWVSYISSSGRTIYYADSVKGRFTISRDNAKNSLYLQMNSLRDEDTAVYYCARGRFFDYWGQGTLVTVSSGGGGSGGGGSGGGGSDIVMTQSPSFLSASVGDRVTITCRASQSISRYLNWYQQKPGKAPKLLIYAASSLQSGVPSRFSGSGSGTDFTLTISSLQPEDFAIYYCQQSYSTLLTFGGGTKLEIKR
notes: ELISA and BIAcore: purified from periplasm with C-terminal His6-tag and myc-tag; Two-hybrid: fused to VP16 AD; Co-location: with nls and myc-tag; also called ICAb 33
[7]
  luciferase reporter activation in COS7 cells: > 10 fold
[1]
  Kd: ~10 nM
[3]
  binding result: no binding
[4]
  binding result: no binding
[2]
  koff: 0.00113 s⁻¹
  kon: 176000 M⁻¹ s⁻¹
[6]
  Kd: 9.97 nM
  koff: 0.00113 s⁻¹
  kon: 176000 M⁻¹ s⁻¹
[8]
  Kd: 1.39 nM
BSA
  binding result: no binding (tested: 450 ng per well (legend))

B4: anti-RAS scFv J48 (scFv)
scFv: B3 scFv with T31Y, F32L, S33Y
notes: Same formats as scFv33 (His6/myc purified; VP16 fusion; nls-myc)
[7]
  luciferase reporter activation in COS7 cells: > 10 fold
[3]
  binding result: no binding
[4]
  binding result: no binding
[6]
  Kd: 2.6 nM
  koff: 0.00482 s⁻¹
  kon: 1.87e+06 M⁻¹ s⁻¹
[8]
  Kd: 3.63 nM
BSA
  binding result: no binding (tested: 450 ng per well (legend))

B5: IDab anti-RAS #6 (other)
VH: EVQLLESGGGLVQPGGSLRLSCAASGFSFSTFSMNWVRQAPGKGLEWVSYISRTSKTIYYADSVKGRFTISRDNSKNTLYLQMNSLRAEDTAVYYCARGRFFDYWGQGTLVTVSS
[9]
  transforming activity in NIH3T3 cells, relative to HRASG12V alone: < 10%

B6: IDab anti-RAS #12 (other)
VH: B5 VH with T31V, F32W, S33A, N35S
[1]
  Kd: ~26 nM
[10]
  binding result: binds

B7: IDab 33 (single VH domain of anti-RAS scFv33) (other)
VH: B5 VH with E1Q, L5V, S7A, R53S, T54S, S55G, K56R, S75A, T78S, A88D
notes: also called 33VH; VH from intrabody anti-RAS scFv33
[1]
  Kd: ~90 nM
[2]
  koff: 0.0144 s⁻¹
  kon: 12500 M⁻¹ s⁻¹
